Results published in US20180171002A1 (BERG, published 2018).

What was measured:
[1] = biological target: E.Coli-expressed FLNC (aa 1438-2128) (Homo sapiens (Human)) (UniProt Q14315); assay: ELISA, positive control
[2] = biological target: T1, HEK293-expressed full length FLNA (UniProt: P21333) (human, UniProt P21333 2-2647); assay: ELISA, positive control
T1 construct: Full length protein; also called full length human FLNA protein; Full length filamin A

[3] = biological target: E.Coli-expressed partial FLNA (aa 1443-2131) (human) (UniProt P21333); assay: ELISA, positive control
[4] = biological target: E.Coli-expressed FLNC (aa 1438-2128) (Homo sapiens (Human)) (UniProt Q14315); assay: ELISA, negative control
[5] = biological target: T1, HEK293-expressed full length FLNA …; assay: ELISA, negative control
[6] = biological target: E.Coli-expressed partial FLNA (aa 1443-2131) (human) (UniProt P21333); assay: ELISA, negative control
[7] = biological target: HEK293-expressed full length FLNB (Homo sapiens (Human)) (UniProt O75369); assay: ELISA, negative control
[8] = biological target: E.Coli-expressed partial FLNB (aa 1416-2089) (Homo sapiens (Human)) (UniProt O75369); assay: ELISA, negative control
Sequence of E.Coli-expressed partial FLNB (aa 1416-2089) (Homo sapiens (Human)) (O75369 1416-2089, tags left off): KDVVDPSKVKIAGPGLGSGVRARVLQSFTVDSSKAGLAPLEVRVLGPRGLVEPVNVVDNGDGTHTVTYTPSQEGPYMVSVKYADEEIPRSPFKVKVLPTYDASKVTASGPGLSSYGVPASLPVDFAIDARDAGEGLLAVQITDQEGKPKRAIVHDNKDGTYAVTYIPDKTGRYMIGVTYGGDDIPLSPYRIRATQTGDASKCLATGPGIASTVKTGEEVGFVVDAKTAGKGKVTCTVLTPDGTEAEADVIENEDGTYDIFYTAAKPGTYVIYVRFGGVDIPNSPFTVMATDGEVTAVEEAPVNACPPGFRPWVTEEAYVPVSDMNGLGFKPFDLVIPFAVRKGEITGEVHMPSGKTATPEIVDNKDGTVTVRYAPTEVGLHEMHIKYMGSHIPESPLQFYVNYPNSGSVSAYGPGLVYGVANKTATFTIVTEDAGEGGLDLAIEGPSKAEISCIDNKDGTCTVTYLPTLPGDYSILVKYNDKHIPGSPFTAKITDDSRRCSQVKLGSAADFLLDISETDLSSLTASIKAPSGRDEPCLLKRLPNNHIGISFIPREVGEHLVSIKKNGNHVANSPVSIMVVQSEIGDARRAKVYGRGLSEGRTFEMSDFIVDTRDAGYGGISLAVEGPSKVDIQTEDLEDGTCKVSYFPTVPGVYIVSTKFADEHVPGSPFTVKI

[9] = biological target: T2, E.Coli-expressed partial FLNA (aa 1443-2131) (human, UniProt P21333 1443-2131); assay: BLI (Octet), antibody on AMC anti-mIgG Fc capture sensor, FLNA Partial at 100 nM
T2 construct: also called FLNA Partial; partial FLNA protein
T2 sequence: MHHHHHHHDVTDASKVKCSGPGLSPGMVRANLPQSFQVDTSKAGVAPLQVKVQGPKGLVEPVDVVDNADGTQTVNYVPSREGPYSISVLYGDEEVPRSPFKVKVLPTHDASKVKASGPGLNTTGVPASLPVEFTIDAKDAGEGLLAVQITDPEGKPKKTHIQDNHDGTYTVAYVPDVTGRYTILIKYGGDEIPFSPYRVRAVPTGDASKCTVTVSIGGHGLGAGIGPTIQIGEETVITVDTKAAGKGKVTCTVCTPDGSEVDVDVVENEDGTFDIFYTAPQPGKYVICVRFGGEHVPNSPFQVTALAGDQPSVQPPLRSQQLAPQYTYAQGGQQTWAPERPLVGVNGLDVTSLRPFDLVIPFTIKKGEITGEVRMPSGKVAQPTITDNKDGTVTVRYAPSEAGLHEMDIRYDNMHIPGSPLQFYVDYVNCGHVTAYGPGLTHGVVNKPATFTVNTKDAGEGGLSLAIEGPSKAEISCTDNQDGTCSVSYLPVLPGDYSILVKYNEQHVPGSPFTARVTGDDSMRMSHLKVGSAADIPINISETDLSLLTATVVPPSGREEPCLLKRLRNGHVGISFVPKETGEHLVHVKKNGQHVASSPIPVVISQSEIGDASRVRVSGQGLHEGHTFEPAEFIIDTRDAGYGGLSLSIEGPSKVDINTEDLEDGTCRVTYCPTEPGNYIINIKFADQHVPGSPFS
Protocol: Kinetics studies with ForteBio Bio-Layer Interferometry (BLI) technology were carried out. BLI is a label-free technology for measuring biomolecular interactions. It is an optical analytical technique that analyzes the interference pattern of white light reflected from two surfaces: a layer of immobilized protein on the biosensor tip, and an internal reference layer. Any change in the number of molecules bound to the biosensor tip causes a shift in the interference pattern that can be measured in real-time. The Octet analysis results are shown as below in Table 3.

[10] = biological target: T3, E.Coli-expressed FLNC (aa 1438-2128) (Homo sapiens (Human), UniProt Q14315 1438-2128); assay: ELISA, hybridoma supernatant on protein
T3 construct: also called Partial filamin C
T3 sequence: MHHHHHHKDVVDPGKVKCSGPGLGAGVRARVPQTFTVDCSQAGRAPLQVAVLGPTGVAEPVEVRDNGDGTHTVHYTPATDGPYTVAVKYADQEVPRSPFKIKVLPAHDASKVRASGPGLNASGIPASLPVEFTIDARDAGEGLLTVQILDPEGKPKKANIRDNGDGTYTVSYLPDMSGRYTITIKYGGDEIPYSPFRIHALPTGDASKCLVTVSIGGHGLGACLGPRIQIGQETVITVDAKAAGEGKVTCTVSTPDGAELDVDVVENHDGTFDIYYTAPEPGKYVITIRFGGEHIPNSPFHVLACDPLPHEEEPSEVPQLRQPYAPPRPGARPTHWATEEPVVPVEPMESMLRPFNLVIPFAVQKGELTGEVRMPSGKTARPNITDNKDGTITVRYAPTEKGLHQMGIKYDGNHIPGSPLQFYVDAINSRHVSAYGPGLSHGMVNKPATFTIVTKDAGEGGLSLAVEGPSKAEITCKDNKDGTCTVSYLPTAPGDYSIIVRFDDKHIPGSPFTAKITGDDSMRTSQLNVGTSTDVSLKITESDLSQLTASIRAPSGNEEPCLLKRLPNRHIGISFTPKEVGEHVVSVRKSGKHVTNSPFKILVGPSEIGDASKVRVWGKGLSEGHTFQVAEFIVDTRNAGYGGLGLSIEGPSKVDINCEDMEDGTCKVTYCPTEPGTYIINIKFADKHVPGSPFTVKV
Protocol: (§1) Next, supernatants from clone 2C12, 3F4, and 6E3 were tested to bind the above proteins by ELISA. FLNA proteins were tested for specificity, while homologous proteins FLNB and FLNC from the same family were tested for cross-reactivity. 10% pooled normal human serum was also included for any unexpected non-specific binding.

[11] = biological target: T1, HEK293-expressed full length FLNA …; assay: ELISA, hybridoma supernatant on protein
Protocol: as §1

[12] = biological target: T2, E.Coli-expressed partial FLNA (aa …); assay: ELISA, hybridoma supernatant on protein
Protocol: as §1

T1 sequence (P21333 other isoform, or with tags, fused parts or gaps limits assumed): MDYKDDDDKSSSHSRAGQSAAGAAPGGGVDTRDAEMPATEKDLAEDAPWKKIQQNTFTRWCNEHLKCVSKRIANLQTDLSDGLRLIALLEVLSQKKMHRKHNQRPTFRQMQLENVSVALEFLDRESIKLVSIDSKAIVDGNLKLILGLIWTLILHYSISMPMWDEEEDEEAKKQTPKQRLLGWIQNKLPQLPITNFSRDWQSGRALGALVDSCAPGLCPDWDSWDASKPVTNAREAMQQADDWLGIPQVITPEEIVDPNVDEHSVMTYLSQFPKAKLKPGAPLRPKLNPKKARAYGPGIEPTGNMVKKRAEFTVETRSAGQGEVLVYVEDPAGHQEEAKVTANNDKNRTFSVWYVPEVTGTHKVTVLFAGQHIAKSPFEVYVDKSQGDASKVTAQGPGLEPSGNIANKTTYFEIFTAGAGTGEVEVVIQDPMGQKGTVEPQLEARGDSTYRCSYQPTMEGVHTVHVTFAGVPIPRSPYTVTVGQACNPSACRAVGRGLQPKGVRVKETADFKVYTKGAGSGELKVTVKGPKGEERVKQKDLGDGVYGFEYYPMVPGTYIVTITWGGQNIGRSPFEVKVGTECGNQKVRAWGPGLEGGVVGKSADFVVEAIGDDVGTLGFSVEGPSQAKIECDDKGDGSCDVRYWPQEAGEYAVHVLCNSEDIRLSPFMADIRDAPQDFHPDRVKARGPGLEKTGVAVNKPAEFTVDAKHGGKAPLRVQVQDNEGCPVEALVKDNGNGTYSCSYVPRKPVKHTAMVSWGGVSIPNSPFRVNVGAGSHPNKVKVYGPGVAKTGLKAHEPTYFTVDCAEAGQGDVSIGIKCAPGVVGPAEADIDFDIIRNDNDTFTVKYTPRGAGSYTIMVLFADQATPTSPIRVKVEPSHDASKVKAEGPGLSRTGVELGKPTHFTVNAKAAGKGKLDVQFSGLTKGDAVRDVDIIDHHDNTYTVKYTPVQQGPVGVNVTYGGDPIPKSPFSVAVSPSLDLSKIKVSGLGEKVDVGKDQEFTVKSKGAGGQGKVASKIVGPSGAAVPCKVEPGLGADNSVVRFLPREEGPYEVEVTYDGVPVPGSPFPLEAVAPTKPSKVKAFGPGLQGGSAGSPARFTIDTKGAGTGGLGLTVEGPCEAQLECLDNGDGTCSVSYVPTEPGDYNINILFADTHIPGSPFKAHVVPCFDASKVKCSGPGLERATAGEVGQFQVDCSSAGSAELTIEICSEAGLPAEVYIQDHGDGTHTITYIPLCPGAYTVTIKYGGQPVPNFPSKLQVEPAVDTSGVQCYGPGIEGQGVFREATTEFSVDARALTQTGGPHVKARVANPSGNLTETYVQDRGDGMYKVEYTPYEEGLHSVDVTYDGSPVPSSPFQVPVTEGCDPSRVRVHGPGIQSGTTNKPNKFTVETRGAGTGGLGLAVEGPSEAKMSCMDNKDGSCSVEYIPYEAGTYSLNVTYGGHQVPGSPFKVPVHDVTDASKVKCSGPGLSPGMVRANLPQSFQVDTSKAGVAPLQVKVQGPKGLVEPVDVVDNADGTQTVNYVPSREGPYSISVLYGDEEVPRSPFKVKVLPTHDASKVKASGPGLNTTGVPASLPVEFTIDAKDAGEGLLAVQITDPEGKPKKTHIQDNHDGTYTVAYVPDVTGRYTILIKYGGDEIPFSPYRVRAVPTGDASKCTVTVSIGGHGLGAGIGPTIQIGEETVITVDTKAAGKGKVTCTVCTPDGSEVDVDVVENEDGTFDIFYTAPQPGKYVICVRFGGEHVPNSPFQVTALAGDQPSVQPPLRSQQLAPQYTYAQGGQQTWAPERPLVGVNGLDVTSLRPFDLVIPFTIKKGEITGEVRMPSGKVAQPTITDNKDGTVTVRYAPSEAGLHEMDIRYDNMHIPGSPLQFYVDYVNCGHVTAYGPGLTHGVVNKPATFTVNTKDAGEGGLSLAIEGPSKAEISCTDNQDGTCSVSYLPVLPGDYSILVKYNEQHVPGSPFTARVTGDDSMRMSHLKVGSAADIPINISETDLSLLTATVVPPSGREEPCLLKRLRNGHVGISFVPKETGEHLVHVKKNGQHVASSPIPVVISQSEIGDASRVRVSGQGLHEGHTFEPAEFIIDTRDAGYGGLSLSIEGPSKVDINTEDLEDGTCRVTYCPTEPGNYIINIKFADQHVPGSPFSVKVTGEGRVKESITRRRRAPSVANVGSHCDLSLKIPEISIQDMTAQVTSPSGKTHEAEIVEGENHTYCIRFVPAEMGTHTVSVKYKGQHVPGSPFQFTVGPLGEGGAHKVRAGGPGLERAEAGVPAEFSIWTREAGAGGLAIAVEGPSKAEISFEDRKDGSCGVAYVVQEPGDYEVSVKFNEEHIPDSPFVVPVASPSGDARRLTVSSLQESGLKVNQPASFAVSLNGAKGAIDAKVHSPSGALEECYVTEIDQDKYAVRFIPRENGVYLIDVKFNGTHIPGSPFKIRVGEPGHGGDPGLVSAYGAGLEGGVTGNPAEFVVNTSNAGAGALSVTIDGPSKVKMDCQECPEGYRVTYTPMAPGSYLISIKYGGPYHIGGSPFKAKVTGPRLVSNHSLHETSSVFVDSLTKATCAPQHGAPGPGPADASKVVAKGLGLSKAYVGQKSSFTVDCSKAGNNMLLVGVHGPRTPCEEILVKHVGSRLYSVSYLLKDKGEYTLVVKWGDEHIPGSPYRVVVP

Molecule | ELISA test result (signal) [1] | ELISA test result (signal) [2] | ELISA test result (signal) [3] | ELISA test result (signal) [4] | ELISA test result (signal) [5] | ELISA test result (signal) [6] | ELISA test result (signal) [7] | ELISA test result (signal) [8] | Kd [9] | Response [9] | koff [9] | kon [9] | ELISA test result (signal) [10] | ELISA test result (signal) [11] | ELISA test result (signal) [12]
Pos ctl (positive control of the ELISA of Table 2) | 1.7 | 3.09 | 3.85 |  |  |  |  |  |  |  |  |  |  |  | 
Neg ctl (negative control of the ELISA of Table 2) |  |  |  | 0.042 | 0.043 | 0.072 | 0.072 | 0.069 |  |  |  |  |  |  | 
anti-FLNA murine monoclonal antibody 3F4 (antibody, IgG2b, V domains shown, also called clone 3F4) VH: EVQLQESGPGLAKPSQTLSLTCSVTGYSITSNYWNWIRKFPGNKLEYMGYISFSGSTYYNPSLKSRISITRDTSKNQYYLQLNSVTTEDTATYYCARWNYYAMDYWGQGTSVTVSS VL: DFLLTQSPAILSVSPGERVSFSCRASQSIGTNIHWYQQRTNGSPRLLIKFASESISGIPSRFSGSGSGTDFTLTINSVESEDIADYYCQQSNSWPYTFGGGTKLEIK |  |  |  |  |  |  |  |  | 0.999 nM | 0.283 | 0.000804 s⁻¹ | 805000 M⁻¹ s⁻¹ | 0.042 | 2.35 | 3.04
anti-FLNA murine monoclonal antibody 2C12 (antibody, IgG1, V domains shown, also called clone 2C12) VH: QVQLKQSGPGLVQPSQSLSITCTVSGFSLTNYGVHWVRQSPGKGLEWLGVIWRGGSTDYNAAFMSRLSITKDNSKSQVFFKMNSLQADDTAIYFCALRGNYVHYYLMDYWGQGTSVTVSS VL: DIQVTQTPSSLSASLGDRVTISCRASQDISNYLNWYQQKPDGTVKLLIYYTSRLHSGVPSRFSGSGSGTDYSLTISNLDQEDIATYFCQQGNTLPPTFGGGTNLEIK |  |  |  |  |  |  |  |  | 4.82 nM | 0.222 | 0.000381 s⁻¹ | 79000 M⁻¹ s⁻¹ | 0.044 | 1.87 | 3.32
anti-FLNA murine monoclonal antibody 6E3 (antibody, IgG1, V domains shown, also called clone 6E3; mab 6E3) VH: QVQLQQSGAELMKPGASVKLSCKATGYTFTGYWIEWVKQRPGHGLEWIGEILPGNGSTNCNEKFKGKATFTATTSSNTAYMQLSSLTTEDSAIYYCTTVSYWGQGTTLTVSS VL: DVVMTQTPLSLPVSLGDQASISCRSSQSLVHSNGNTYLHWYLQKPGQSPNLLIYKVSNRFSGVPDRFTGSGSGTDFTLKISRVEAEDLGVYFCSQSTHVPFTFGSGTKLEIK |  |  |  |  |  |  |  |  | 4.02 nM | 0.33 | 0.000784 s⁻¹ | 195000 M⁻¹ s⁻¹ | 0.041 | 2.2 | 2.57
